Experiment [1] deals with T1, rHuman EGF R/Fc Chimera, CF (R&D Systems Cat#344-ER) (human, UniProt P00533 25-645).
T1 construct: Purchased Fc chimera; not shown: Fc portion of the purchased chimera
In words: MSD ECL multi-spot plate, antigen immobilized; Fab 40 nM; blank spot 502.

The target of experiment [2] is T2, rHuman HGF R/c-MET/Fc Chimera, CF (R&D Systems Cat#358-MT/CF) (human, UniProt P08581 25-932).
T2 construct: Purchased Fc chimera; also called HGF R/Fc; not shown: Fc portion of the purchased chimera
Described as above.

In experiment [3] the target is T3, rHuman CD44/Fc Chimera, CF (R&D Systems Cat#3660-CD) (human, UniProt P16070 21-220).
T3 construct: Purchased Fc chimera; not shown: Fc portion of the purchased chimera
Described as above.

The target in experiment [4] is T4, rHuman Erythropoietin R/Fc Chimera, CF (R&D Systems Cat#963-ER) (human, UniProt P19235 25-250).
T4 construct: Purchased Fc chimera; also called EPO R/Fc; Epo R; not shown: Fc portion of the purchased chimera
T4 sequence: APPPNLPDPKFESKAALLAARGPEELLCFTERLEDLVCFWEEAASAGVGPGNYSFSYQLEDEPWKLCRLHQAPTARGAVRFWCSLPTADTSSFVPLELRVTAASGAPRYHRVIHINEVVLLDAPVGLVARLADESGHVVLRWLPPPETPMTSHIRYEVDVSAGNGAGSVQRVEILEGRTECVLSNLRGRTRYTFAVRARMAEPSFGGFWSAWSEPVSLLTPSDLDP
The description is as above.

In experiment [5] the target is T5, rHuman ErbB2/Fc Chimera, CF (R&D Systems Cat#1129-ER) (human, UniProt P04626 23-652).
T5 construct: Purchased Fc chimera; also called HER2/neu; not shown: Fc portion of the purchased chimera
Described as above.

Experiment [6] has as its target T6, Recombinant Human DLL4 (R&D Systems Cat#1506-D4/CF) (human, UniProt Q9NR61 27-524).
T6 construct: Purchased recombinant protein; also called delta-like protein 4
The experiment is described as above.

Experiment [7] has as its target T7, rHuman Notch-1/Fc Chimera, CF (R&D Systems Cat#3647-TK) (human, UniProt P46531 19-526).
T7 construct: Purchased Fc chimera; not shown: Fc portion of the purchased chimera
Described as above.

For experiment [8], the target named is T8, rHuman P-Cadherin/Fc Chimera, CF (R&D Systems Cat#861-PC) (human, UniProt P22223 108-654).
T8 construct: Purchased Fc chimera; not shown: Fc portion of the purchased chimera
Described as above.

Experiment [9] addresses T9, rHuman IGF-1 sR (IGF-1 sR), CF (R&D Systems Cat#391-GR) (human, UniProt P08069 31-932).
T9 construct: Purchased soluble receptor; also called insulin-like growth factor-1 soluble receptor; IGF-R1
Described as above.

Experiment [10] has as its target T10, rHuman EGF R/Fc Chimera, CF (R&D Systems Cat#344-ER) (human, UniProt P00533 25-645).
T10 construct: Bought Fc chimera; also called epidermal growth factor receptor; Fc part of the bought chimera not given
The experiment can be described thus: ECL (MSD Multi-Spot) binding assay, antigen spotted on plate; Fab 17 nM; blank spot 143.

The target in experiment [11] is T11, rHuman Notch-1/Fc Chimera, CF (R&D Systems Cat#3647-TK) (human, UniProt P46531 19-526).
T11 construct: Bought Fc chimera; Fc part of the bought chimera not given
The description is as above.

Experiment [12] addresses T12, rHuman ErbB2/Fc Chimera, CF (R&D Systems Cat#1129-ER) (human, UniProt P04626 23-652).
T12 construct: Bought Fc chimera; also called HER2/neu; human epidermal growth factor 2 receptor; Fc part of the bought chimera not given
The experiment is described as above.

Experiment [13] concerns the target T13, rHuman CD44/Fc Chimera, CF (R&D Systems Cat#3660-CD) (human, UniProt P16070 21-220).
T13 construct: Bought Fc chimera; Fc part of the bought chimera not given
The experiment can be described thus: MSD ECL multi-spot, Fab 0.14 uM, blank 237.

Experiment [14] deals with T14, rHuman Notch-1/Fc Chimera, CF (R&D Systems Cat#3647-TK) (human, UniProt P46531 19-526).
T14 construct: Bought Fc chimera; Fc part of the bought chimera not given
In words: MSD ECL multi-spot, Fab 0.14 uM, blank 237.

For experiment [15], the target named is T15, rHuman HGF R/c-MET/Fc Chimera, CF (R&D Systems Cat#358-MT/CF) (human, UniProt P08581 25-932).
T15 construct: Bought Fc chimera; also called HGF R/Fc; Fc part of the bought chimera not given
The experiment can be described thus: MSD ECL multi-spot, Fab 0.14 uM, blank 237.

The target in experiment [16] is T16, rHuman EGF R/Fc Chimera, CF (R&D Systems Cat#344-ER) (human, UniProt P00533 25-645).
T16 construct: Bought Fc chimera; Fc part of the bought chimera not given
The experiment can be described thus: MSD ECL multi-spot, Fab 0.14 uM, blank 237.

Experiment [17] deals with T17, rHuman Erythropoietin R/Fc Chimera, CF (R&D Systems Cat#963-ER) (human, UniProt P19235 25-250).
T17 construct: Bought Fc chimera; also called EPO R/Fc; EPOR; Fc part of the bought chimera not given
T17 sequence: T4 sequence
In words: MSD ECL multi-spot, Fab 0.14 uM, blank 237.

Experiment [18] concerns the target T18, Recombinant Human DLL4 (R&D Systems Cat#1506-D4/CF) (human, UniProt Q9NR61 27-524).
T18 construct: Bought recombinant protein; also called rHuman DLL4; delta-like protein 4
In words: MSD ECL multi-spot, Fab 0.14 uM, blank 237.

Experiment [19] deals with T19, rHuman ErbB2/Fc Chimera, CF (R&D Systems Cat#1129-ER) (human, UniProt P04626 23-652).
T19 construct: Bought Fc chimera; also called HER2/neu; Fc part of the bought chimera not given
In words: MSD ECL multi-spot, Fab 0.14 uM, blank 237.

Where a chain is given by its changes, count along the chain named.
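Further: blank spot per well as comparator with Hit at signal to blank ratio of 4 or more.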

B1: Fab VH5-51_IGHD5-18*01>3_IGHJ4*01_G100R & V3-4_IGLJ1*01 (Fab, V domains shown)
VH: EVQLVQSGAEVKKPGESLKISCKGSGYSFTSYWIGWVRQMPGKGLEWMGIIYPGDSDTRYSPSFQGQVTISADKSISTAYLQWSSLKASDTAMYYCARRRYSYGYDYFDYWGQGTLVTVSS
VL: QTVVTQEPSFSVSPGGTVTLTCGLSSGSVSTSYYPSWYQQTPGQAPRTLIYSTNTRSSGVPDRFSGSILGNKAALTITGAQADDESDYYCVLYMGSGISYVFGTGTKVTVL
notes: It was expressed as a Fab: CH1 with tags from Plasmid A and lambda CL from Plasmid E; also called Fab No. 23
Turning to B1, the ECL signal was determined as 1110 ECL signal in experiment [1]; 1230 ECL signal in experiment [2]; 824 ECL signal in [3]; 994 ECL signal in experiment [4]; 1420 ECL signal in experiment [5]; 19500 ECL signal in experiment [6]. Also, the ECL signal in experiment [7] came to 1010 ECL signal; in experiment [8], 1020 ECL signal; in experiment [9], 1240 ECL signal.

B2: Fab VH5-51_IGHD5-18*01>3_IGHJ4*01 & V3-4_IGLJ1*01 (Fab, V domains shown)
VH: B1 VH with R100G
VL: B1 VL
notes: Tested as a Fab made in E. coli; also called IGHV5-51*03
Take B2: the figures for the ECL signal in experiment [10], in experiment [11] and in [12] were 805, 558 and 1030, respectively.

B3: Fab VH1-46_IGHD6-6*01_IGHJ1*01 & L6_IGKJ1*01 (Fab, V domains shown)
VH: QVQLVQSGAEVKKPGASVKVSCKASGYTFTSYYMHWVRQAPGQGLEWMGIINPSGGSTSYAQKFQGRVTMTRDTSTSTVYMELSSLRSEDTAVYYCAREEYSSSSAEYFQHWGQGTLVTVSS
VL: not shown
notes: Expressed in E. coli as Fab: heavy chain with CH1 plus Flag and His tags from Plasmid A, kappa light chain constant region from Plasmid C; also called Fab No. 1
With B3, the ECL signal was determined as 515 in [13]; 614 in [14]; 848 in experiment [15]; 823 in [16]; 693 in experiment [17]; 19300 in experiment [18]. The molecule further displayed an ECL signal in experiment [19] of 870.
